From US5716934A, “Eck receptor ligands” (Amgen Inc., priority 1995, dated 1998)

Tests used:
EGF receptor = EGF receptor phosphorylation in LIM 2405 cells treated with EBP; assay type: cell-based, human
[1] = test system: immobilized soluble extracellular domain of eck; experiment: Stability of eck binding activity of formulated EBP (BIAcore); assay type: physicochemical, human
Description: FIG. 7. Binding of CHO-derived EBP in various detergent formulations to immobilized eck receptor as measured by BIAcore. Purified EBP was diluted to 100 μg/ml in PBS in the presence or absence of detergent and incubated for 2 hrs. at 3° C. Protein samples were diluted to the concentrations indicated in the figure and tested for eck receptor binding.
Measuring the ability of EBP to bind to the immobilized soluble extracellular domain of eck using BIAcore, it was determined that dilute solutions of purified EBP rapidly lost the ability to bind to the eck receptor unless formulated with a protective agent such as a detergent. Recombinant CHO EBP diluted into PBS to 100 μg/ml and incubated for 2 hours at […] lost approximately 50% of its eck binding activity. […] (see FIG. 7).

[2] = test system: extracellular domain of the kit receptor; experiment: BIAcore binding to surfaces activated with kit receptor extracellular domain
Source text: SDS-PAGE analysis of the fractions from this column confirmed that EBP was co-eluted with the receptor binding activity.

[3] = test system: bone marrow suspensions from BDF mice; experiment: Murine bone marrow colony formation (hematopoiesis); assay type: cell-based, mouse
Description: Unfractionated bone marrow suspensions from BDF mice were plated into serum free culture medium (Iscove's modified Dulbecco's medium) in 0.3% agarose and incubated at 37° C., 5% CO2 for ten days at a cell concentration of 1×10^5 /ml in 96 well plates. Total volume per […] was 50 μl . EBP and other growth factors were added in the amounts indicated and colonies were scored at the tenth day of incubation.

colon crypt cells = experiment: Colon crypt assay; assay type: cell-based, mouse; conditions: bFGF 60 ng/ml, EBP 500 ng/ml
Description: Colons from five (BDF) mice were removed and crypts isolated using a non enzymatic (EDTA) extraction method. Briefly, colons are washed and allowed to sit for 20 min. in a solution of PBS containing 0.04% sodium hypochlorite. Crypts are isolated by incubating the tissue for 1 hour at 37° C. in a solution of PBS containing 3 mM EDTA and 0.5 mM DTT. Crypts are then subjected to pancreatin digestion (0.2% in PBS) for 90 min. at 37° C. in order to obtain a single cell suspension. Cells are washed in PBS, counted and viability determined by trypan blue exclusion (85% in this experiment). Cells are then plated in a top layer of 0.37% Sigma low melt agar onto a bottom layer of 0.5% agar. The RPMI media used in the agar includes the presence of 1×ITS (insulin, transferrin, and selenium, Gibco). Incubations were done in the presence of 1% fetal calf serum (FCS) and the indicated growth factors at the following concentration: TGFα, 50 ng/ml; bFGF, 60 ng/ml; EBP, 500 ng/ml. Control incubations lacked growth factors and/or FCS. Each of the various culture conditions was performed in triplicate and scored every several days.

hepatocytes = experiment: 3H-thymidine incorporation in primary hepatocyte cultures; assay type: cell-based; conditions: EBP at 20 ng/ml, aFGF at 20 ng/ml, 24 to 48 hours, serum-free
Description: Hepatocytes were isolated by the in situ two step collagenase perfusion technique described by Seglen (Methods in Toxicol., Vol. 1A, 231-243 (1993). Briefly, the perfused livers were dispersed in ice cold Hank's buffer, filtered through a nylon mesh, and hepatocytes separated from nonparenchymal cells by repeated centrifugation at 50×g. The hepatocytes were determined to be greater than 85% viable by trypan blue exclusion. The hepatocytes were cultured on plates coated with rat tail collagen and plated in Williams E containing 5% FCS, 10^-7 M insulin, 10^-8 M dexamethason, glutamine, penicillin and streptomycin.
Cells were allowed to attach for 3-4 hours in serum containing media and then transferred to serum-free media. The appropriate concentrations of EBP or other growth factors were added and the cells were incubated for 24 to 48 hours in the presence of ^3 H-thymidine. After incubation, the extent of ^3 H-thymidine incorporation into cells was determined. The growth factors tested were keratinocyte growth factor (KGF) at 10 ng/ml, acidic FGF (aFGF) at 20 ng/ml, and EBP at 20 ng/ml. […] In this particular experiment, the serum free value was unusually high (about 3-fold).

B1: EBP: eck receptor binding protein, polypeptide ligand of the eck receptor (B61 gene product, SEQ. ID. NO. 1); source form not specified at place (protein)
chain: MEFLWAPLLGLCCSLAAADRHTVFWNSSNPKFRNEDYTIHVQLNDYVDIICPHYEDHSVADAAMEQYILYLVEHEEYQLCQPQSKDQVRWQCNRPSAKHGPEKLSEKFQRFTPFTLGKEFKEGHSYYYISKPIHQHEDRCLRLKVTVSGKITHSPQAHVNPQEKRLAADDPEVRVLHSIGHSAAPRLFPLAWTVLLLPLLLLQTP
phosphorylation of the EGF receptor (EGF receptor): does not result in spurious phosphorylation | loss of eck binding activity when formulated in detergent ([1]; 1 mM CHAPS, 0.1% NP-40, 0.1% tween 20, 0.1% triton-X 100, or 0.1% tween 80): loss of activity can be avoided | stability of eck binding activity ([1]; 2-5 mg/ml in detergent solutions, 3° C.): stable for at least one week | stability of eck binding activity ([1]; 10-500 μg/ml, stored at -20° C. or multiple freeze thaw cycles): will lose activity | loss of eck binding activity when incubated with protein carriers ([1]; diluted EBP with carriers such as fetal calf serum): can also be avoided | binding to BIAcore surfaces activated with the extracellular domain of the kit receptor [2]: did not bind | stimulation of CFU-M or BFU-E/CFU-E ([3]; EBP alone): no stimulation | potentiation of murine IL-3 dependent CFU-C formation compared to IL-3 alone ([3]; EBP at 1 μg/ml with murine IL-3, colonies scored day 10): about 2 fold | colon crypt cell clusters, overall observation (colon crypt cells): occasional large clusters | amount of 3H-thymidine incorporation stimulated (hepatocytes): about the same as that induced by aFGF
